Patent US20200079844A1
Read-outs that look alike come from different tables or passages of the source.

Tests used:
human TNFα (human) [1] = target: human TNFα (human) (UniProt P01375); experiment: cell-based or functional assay
rhesus TNFα (rhesus) [2] = target: rhesus TNFα (rhesus) (UniProt P48094)
rhesus TNFα (rhesus) [3] = target: rhesus TNFα (rhesus) (UniProt P48094); experiment: cell-based or functional assay
rhesus TNFα (rhesus) [4] = target: rhesus TNFα (rhesus) (UniProt P48094); remark: listed apart in the source
human TNFα (human) [5] = target: human TNFα (human) (UniProt P01375); experiment: cell-based or functional assay; remark: listed apart in the source

rhesus TNFα (rhesus), sequence (P48094 77-233 limits assumed): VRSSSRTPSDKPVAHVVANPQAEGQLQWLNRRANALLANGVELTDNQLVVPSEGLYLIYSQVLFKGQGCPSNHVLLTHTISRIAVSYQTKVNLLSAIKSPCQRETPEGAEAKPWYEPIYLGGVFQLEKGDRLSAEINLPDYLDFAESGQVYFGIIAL
human TNFα (human), sequence (P01375 77-233 limits assumed): as the sequence (P48094 77-233 limits assumed) above, with T44R, N72T, L138R counted along it

Q: Which results are given for ALX0071?
A: IC50 in pM; TNFα-induced IL-6 production by RA synovial fibroblasts, donor DS534 P4 (human TNFα (human) [1]): 132 pM; IC50 in pM; TNFα-induced IL-6 production by RA synovial fibroblasts, donor DS592 P4 (human TNFα (human) [1]): 363 pM; IC50 in pM; TNFα-induced IL-6 production by RA synovial fibroblasts, donor DS605 P3 (human TNFα (human) [1]): 427 pM; IC50 in pM; TNFα-induced IL-6 production by RA synovial fibroblasts, donor KM05-179 P4 (human TNFα (human) [1]): 537 pM; p[IC]50; TNFα-induced IL-6 production by RA synovial fibroblasts, donor DS534 P4 (human TNFα (human) [1]): 9.88; p[IC]50; TNFα-induced IL-6 production by RA synovial fibroblasts, donor DS592 P4 (human TNFα (human) [1]): 9.44; p[IC]50; TNFα-induced IL-6 production by RA synovial fibroblasts, donor DS605 P3 (human TNFα (human) [1]): 9.37; p[IC]50; TNFα-induced IL-6 production by RA synovial fibroblasts, donor KM05-179 P4 (human TNFα (human) [1]): 9.27

Q: What does the source list for Enbrel (Etanercept) (Fc fusion)?
A: EC50 (read off the curve) (rhesus TNFα (rhesus) [2]): 0.01 nM; EC50 in nM (mean); L929s + Act D cytotoxicity assay, human TNFa @ 0.5 ng/ml (human TNFα (human) [1]): 0.009 nM; EC50 in nM (mean); L929s + Act D cytotoxicity assay, human TNFα @ 0.5 ng/ml (human TNFα (human) [1]): 0.009 nM; EC50 in nM; alphaKYM cell assay (10000 c/w), human TNFa @ 1 ng/ml (human TNFα (human) [1]): 0.04 nM; IC50 in pM; TNFα-induced IL-6 production by RA synovial fibroblasts, donor DS534 P4 (human TNFα (human) [1]): 282 pM; IC50 in pM; TNFα-induced IL-6 production by RA synovial fibroblasts, donor DS592 P4 (human TNFα (human) [1]): 324 pM; IC50 in pM; TNFα-induced IL-6 production by RA synovial fibroblasts, donor DS605 P3 (human TNFα (human) [1]): 309 pM; IC50 in pM; TNFα-induced IL-6 production by RA synovial fibroblasts, donor KM05-179 P4 (human TNFα (human) [1]): 309 pM; p[IC]50; TNFα-induced IL-6 production by RA synovial fibroblasts, donor DS534 P4 (human TNFα (human) [1]): 9.55; p[IC]50; TNFα-induced IL-6 production by RA synovial fibroblasts, donor DS592 P4 (human TNFα (human) [1]): 9.49; p[IC]50; TNFα-induced IL-6 production by RA synovial fibroblasts, donor DS605 P3 (human TNFα (human) [1]): 9.51; p[IC]50; TNFα-induced IL-6 production by RA synovial fibroblasts, donor KM05-179 P4 (human TNFα (human) [1]): 9.51; EC50 in nM (mean); L929s + Act D cytotoxicity assay, rhesus TNFa @ 0.5 ng/ml (rhesus TNFα (rhesus) [3]): 0.009 nM; EC50 in nM (mean); L929s + Act D cytotoxicity assay, rhesus TNFα @ 0.5 ng/ml (rhesus TNFα (rhesus) [3]): 0.009 nM

Q: Which EC50 (read off the curve) (rhesus TNFα (rhesus) [4]) does the source give for Humira (Adalimumab) (antibody) here?
A: Its EC50 (read off the curve) is 0.1 nM.

Q: What about the EC50 (read off the curve) (rhesus TNFα (rhesus) [2]) of the same substance?
A: Its EC50 (read off the curve) is 0.09 nM.

Q: What about the EC50 in nM (mean); cytotoxicity assay, human TNFα (human TNFα (human) [1]) of the same substance?
A: Its EC50 in nM (mean); cytotoxicity assay, human TNFα is 0.141 nM.

Q: What about the EC50 in nM; alphaKYM cell assay (10000 c/w), human TNFa @ 1 ng/ml (human TNFα (human) [1]) of the same substance?
A: Its EC50 in nM; alphaKYM cell assay (10000 c/w), human TNFa @ 1 ng/ml is 0.103 nM.

Q: What about the EC50 in nM (mean); L929s + Act D cytotoxicity assay, rhesus TNFa @ 0.5 ng/ml (rhesus TNFα (rhesus) [3]) of the same substance?
A: The EC50 in nM (mean); L929s + Act D cytotoxicity assay, rhesus TNFa @ 0.5 ng/ml was 0.071 nM.

Q: And the EC50 in nM (mean); L929s + Act D cytotoxicity assay, rhesus TNFα @ 0.5 ng/ml (rhesus TNFα (rhesus) [3])?
A: Its EC50 in nM (mean); L929s + Act D cytotoxicity assay, rhesus TNFα @ 0.5 ng/ml is 0.071 nM.

Q: And the EC50 in nM (mean); cytotoxicity assay, human TNFα (human TNFα (human) [5])?
A: The EC50 in nM (mean); cytotoxicity assay, human TNFα was 0.127 nM.

Q: Which EC50 in nM (mean); L929s + Act D cytotoxicity assay, rhesus TNFa @ 0.5 ng/ml (rhesus TNFα (rhesus) [3]) does the source give for Remicade (Infliximab) (antibody) here?
A: Its EC50 in nM (mean); L929s + Act D cytotoxicity assay, rhesus TNFa @ 0.5 ng/ml is > 6.7 nM.

Q: What about the EC50 in nM (mean); L929s + Act D cytotoxicity assay, rhesus TNFα @ 0.5 ng/ml (rhesus TNFα (rhesus) [3]) of the same substance?
A: Its EC50 in nM (mean); L929s + Act D cytotoxicity assay, rhesus TNFα @ 0.5 ng/ml is > 6.7 nM.
